According to the supplement of paper PMC10724198:
± gives the standard deviation of the averaged measurements.
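Also: PSI is a weighted mean of sequencing reads over stability bins, variants kept only with over 10 reads, mCherry proximal and sfGFP distal, peptide attached via GGGS linker.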

Each sequence was assayed on Saccharomyces cerevisiae (assay: protein stability index of tFT-peptide fusion (C-terminal peptide) (PSI (0-1 scale)); higher = more stable (slower turnover)). Conditions: genetic background: wild type; temperature: 30 C.
Method: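 Multiplexed protein stability (MPS) profiling in S. cerevisiae. Random 12-aa peptides (tFT-X12 library) are fused to the C-terminus of a sfGFP-mCherry tandem fluorescent timer, after mCherry and a GGGS linker. Cells are FACS-sorted into 8 mCherry/sfGFP bins and deep-sequenced. The protein stability index (PSI) is the read-weighted bin average, scaled from 0 (unstable) to 1 (stable). Only peptides with >10 reads are reported; cells were grown at 30 °C in SC-His with glucose.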
AADSKERPPRPP was tested, and the protein stability index was 0.625 ± 0.0092. For AAGEGSAPTRDR, the protein stability index was 0.672 ± 0.028. Work on AAGPILAFSVAC yielded a protein stability index of 0.638 ± 0.039. AAGSVFAEGYTG gave a protein stability index of 0.686 ± 0.042. AAHSQNPPPPSS was tested, and the protein stability index was 0.697 ± 0.031. AAIARRNIFKAR was tested, and the protein stability index was 0.689 ± 0.039. AALSTYPLVTCS showed a protein stability index of 0.547 ± 0.012. For AARYSRSPRTCF, the protein stability index was 0.6507 ± 0.0059. For AASVYAFLPGLY, the protein stability index was 0.651 ± 0.021. AATGPPHPPSPP showed a protein stability index of 0.804 ± 0.037. AAVRPAHRICYS was tested, and the protein stability index was 0.733 ± 0.041. With AAWGSGMCLCVF the protein stability index was 0.559 ± 0.046. In the case of AAWSITFEVLSI, the protein stability index is reported as 0.59 ± 0.026. ACARIGRDYVTP showed a protein stability index of 0.687 ± 0.016. For ACKWGVNKSTLG, the protein stability index was 0.703 ± 0.043. ACLLYSGFSTEL showed a protein stability index of 0.654 ± 0.0066. With ACLPRARLRFHV the protein stability index was 0.669 ± 0.027. ACRSGTRFAGIW was tested, and the protein stability index was 0.703 ± 0.016. With ACRTGSSLLHPI the protein stability index was 0.706 ± 0.06. For ACSLGQSVLVCR, the protein stability index was 0.611 ± 0.02. In the case of ACSSGGVGWGSV, the protein stability index is reported as 0.66 ± 0.034. ACWGFFIAGVRV gave a protein stability index of 0.598 ± 0.056. ADEGRGVGGVGG was tested, and the protein stability index was 0.699 ± 0.061. For ADGGVVLKVMEG, the protein stability index was 0.636 ± 0.077. ADRSVGSAACSP was tested, and the protein stability index was 0.72 ± 0.15. With ADWGLLVNRSHH the protein stability index was 0.725 ± 0.084. ADYSRHSCSSSP gave a protein stability index of 0.681 ± 0.053. AEESPVDKRPKS was tested, and the protein stability index was 0.728 ± 0.036. For AENHCIASRIGH, the protein stability index was 0.659 ± 0.019. Sequence AETPRGDTRLHE has a protein stability index of 0.699 ± 0.021. AFAWERPCEIRF gave a protein stability index of 0.6984 ± 0.0063. AFCKTGSAGVGI gave a protein stability index of 0.634 ± 0.046. For AFGCGGVPGDFA, the protein stability index was 0.63 ± 0.015. AFLLPYTSLLLT gave a protein stability index of 0.516 ± 0.026. In the case of AFLLSSIRPSLR, the protein stability index is reported as 0.7486 ± 0.005. For AFPAQSLRLRCE, the protein stability index was 0.688 ± 0.049. Sequence AFRSISERLGGS has a protein stability index of 0.784 ± 0.018. AFRVPGSCAFSP was tested, and the protein stability index was 0.641 ± 0.011. For AFSTGSIILEPR, the protein stability index was 0.646 ± 0.016. In the case of AFYLYLSSTSRF, the protein stability index is reported as 0.662 ± 0.0086. In the case of AGAGGGGAVVVG, the protein stability index is reported as 0.637 ± 0.039. AGCRRGLGMETQ was tested, and the protein stability index was 0.648 ± 0.012. In the case of AGCVAVYGVFLG, the protein stability index is reported as 0.619 ± 0.13. For AGCVVGWGAWVL, the protein stability index was 0.7035 ± 0.0064. With AGDTCRLRIHVD the protein stability index was 0.728 ± 0.021. In the case of AGEGLIRMIVRP, the protein stability index is reported as 0.694 ± 0.024. Sequence AGGARADKQGGG has a protein stability index of 0.636 ± 0.071. For AGGGRGAEGCGG, the protein stability index was 0.783 ± 0.069. With AGGGVKLWWGRE the protein stability index was 0.657 ± 0.054. Work on AGGPARWCLEVG yielded a protein stability index of 0.7 ± 0.015. Work on AGGRSVCGSALP yielded a protein stability index of 0.661 ± 0.016. Sequence AGGWLRGGLGVG has a protein stability index of 0.7 ± 0.053. Sequence AGIFGGGRGVSV has a protein stability index of 0.647 ± 0.039. For AGIGWGDLASPG, the protein stability index was 0.681 ± 0.025. AGKVCGVGRLSI was tested, and the protein stability index was 0.65 ± 0.033. AGLEPGTAALVD was tested, and the protein stability index was 0.641 ± 0.094. AGLGLGRVNVMP showed a protein stability index of 0.743 ± 0.03. Sequence AGLSGRGFLRGA has a protein stability index of 0.6923 ± 0.0062. Sequence AGMATWGILVSL has a protein stability index of 0.52 ± 0.008. In the case of AGPGGAPVRWCR, the protein stability index is reported as 0.723 ± 0.037. AGPKYHLGIPAP was tested, and the protein stability index was 0.678 ± 0.014. With AGPPSPPLHPVG the protein stability index was 0.696 ± 0.026. For AGREREVLFNLH, the protein stability index was 0.679 ± 0.067. AGRFAPAEARVF was tested, and the protein stability index was 0.622 ± 0.056. AGRVGVRGVVGG gave a protein stability index of 0.748 ± 0.1. Sequence AGRVRERMRVYG has a protein stability index of 0.639 ± 0.01. AGSFGCREAVCP showed a protein stability index of 0.658 ± 0.044. With AGSSQWSLGQLG the protein stability index was 0.6345 ± 0.002. AGVGGCVGLGCR was tested, and the protein stability index was 0.653 ± 0.042. Work on AHPGHRPSHPPY yielded a protein stability index of 0.727 ± 0.08. In the case of AHPPLLPPLLPS, the protein stability index is reported as 0.639 ± 0.015. AHPPSPPPTRRP was tested, and the protein stability index was 0.676 ± 0.0079. AHSAPGHPHDFP gave a protein stability index of 0.664 ± 0.046. AIALASTNLMAG was tested, and the protein stability index was 0.713 ± 0.097. AIGDLQKAVPLM gave a protein stability index of 0.718 ± 0.047. AILHFTVSPRVY gave a protein stability index of 0.561 ± 0.0097. Work on AIRRNVYSCVYG yielded a protein stability index of 0.603 ± 0.032. In the case of AIYDSFRISYRT, the protein stability index is reported as 0.675 ± 0.028. For AIYKGVIVGKKS, the protein stability index was 0.646 ± 0.043. In the case of AKRFQTTWAGRM, the protein stability index is reported as 0.61 ± 0.037. AKSGEVIGSWFG gave a protein stability index of 0.67127 ± 0.00043. With ALCHASSLHLQS the protein stability index was 0.724 ± 0.059. Work on ALGNFPLGASVS yielded a protein stability index of 0.676 ± 0.035. For ALGRTPYSGCFL, the protein stability index was 0.631 ± 0.021. For ALKLVGSVWFGG, the protein stability index was 0.676 ± 0.15. ALLAFMSSPRRL was tested, and the protein stability index was 0.7001 ± 0.0028. ALLPPRPPSPLP showed a protein stability index of 0.692 ± 0.016. Sequence ALRLLRHTLSSS has a protein stability index of 0.703 ± 0.016. With ALRPYDVQVKFR the protein stability index was 0.622 ± 0.038. For ALRVHVPPYVPA, the protein stability index was 0.6785 ± 0.0049. ALSPPSPTPASA showed a protein stability index of 0.694 ± 0.049. Work on ALSPSLWCYFPT yielded a protein stability index of 0.71 ± 0.029. Sequence ALSTALVIPLLY has a protein stability index of 0.58818 ± 0.00035. ALSVASVAVVPL gave a protein stability index of 0.56 ± 0.015. Work on ALVLLIPLSLLL yielded a protein stability index of 0.522 ± 0.11. In the case of ALVLYVSMSRGY, the protein stability index is reported as 0.677 ± 0.054. With ALVPESDLGLNF the protein stability index was 0.714 ± 0.026. Sequence ALVSRGPCVFGW has a protein stability index of 0.662 ± 0.045. ALYLFHAPRTPP gave a protein stability index of 0.637 ± 0.014. In the case of AMSLWFGFFHFV, the protein stability index is reported as 0.555 ± 0.018. In the case of ANAPQAEHASVL, the protein stability index is reported as 0.699 ± 0.021. ANKNNIQRTISL showed a protein stability index of 0.756 ± 0.038. Sequence ANRGYRYGASRV has a protein stability index of 0.649 ± 0.017. With APDLPHSTNLPR the protein stability index was 0.741 ± 0.024. In the case of APDPTIPYSPTP, the protein stability index is reported as 0.717 ± 0.028. Work on APGSPLDPLTMF yielded a protein stability index of 0.6535 ± 0.0041. In the case of APITPNPLYLNH, the protein stability index is reported as 0.697 ± 0.055. In the case of APKLWLPYTCQS, the protein stability index is reported as 0.705 ± 0.059. Work on APLGLSFVSAVI yielded a protein stability index of 0.793 ± 0.087. With APNPYHKPPSLR the protein stability index was 0.701 ± 0.11. With APPAPPLPAIPL the protein stability index was 0.675 ± 0.038. In the case of APPARSSPPPRP, the protein stability index is reported as 0.686 ± 0.039. APPHLVTYPLCP showed a protein stability index of 0.66 ± 0.067. In the case of APPPAFLPPPPA, the protein stability index is reported as 0.729 ± 0.048. APPPAPPLHPPS was tested, and the protein stability index was 0.739 ± 0.022. APPPAPSPPLAP showed a protein stability index of 0.69 ± 0.027. Work on APPPLPSLPPSP yielded a protein stability index of 0.701 ± 0.017. Sequence APPPPAPPPLRP has a protein stability index of 0.724 ± 0.05. APPPPARDLPPR showed a protein stability index of 0.721 ± 0.017. APPPPPPDPPLP was tested, and the protein stability index was 0.685 ± 0.011. APPPRATLPRPP gave a protein stability index of 0.673 ± 0.055. For APPPRSPPPPPL, the protein stability index was 0.6796 ± 0.0067. Work on APPSPPSPPGLP yielded a protein stability index of 0.672 ± 0.033. APPSSYSSPPPS showed a protein stability index of 0.692 ± 0.017. In the case of APRPSLTPLSTP, the protein stability index is reported as 0.653 ± 0.09. Work on APRRVPWLLGRV yielded a protein stability index of 0.578 ± 0.099. APRTPATRPNHP was tested, and the protein stability index was 0.723 ± 0.045. In the case of APSGFRRKDVDL, the protein stability index is reported as 0.68 ± 0.034. APSGPFLFIMNA showed a protein stability index of 0.663 ± 0.047. With APSGVGANGWGR the protein stability index was 0.654 ± 0.0085. APSPPSVPSPPP was tested, and the protein stability index was 0.675 ± 0.0088. APSRPFPAHPPP showed a protein stability index of 0.602 ± 0.044. In the case of APSRTTERILLL, the protein stability index is reported as 0.714 ± 0.029. APTPPPPPPPLP gave a protein stability index of 0.752 ± 0.011. APTQANLRSSRS was tested, and the protein stability index was 0.73 ± 0.022. In the case of APTRVDTAGSCV, the protein stability index is reported as 0.676 ± 0.051. With APVEVYRHAEAS the protein stability index was 0.67 ± 0.035. Sequence APVSLHVPPCSR has a protein stability index of 0.669 ± 0.026. With AQLGQTCDRDGM the protein stability index was 0.79 ± 0.17. AQPCISGLTCRY showed a protein stability index of 0.729 ± 0.0096. In the case of AQPDAFAGVWGV, the protein stability index is reported as 0.7177 ± 0.0028. Sequence AQTPNPEPLENN has a protein stability index of 0.699 ± 0.033. Work on ARATPLWDLMPP yielded a protein stability index of 0.615 ± 0.094. ARCSPVPWGGGE gave a protein stability index of 0.647 ± 0.033. In the case of ARGSRNHRGAGA, the protein stability index is reported as 0.738 ± 0.067. ARIVEQTLCTKS showed a protein stability index of 0.679 ± 0.057.
